From patent EP4361176A1 (CHUGAI SEIYAKU KABUSHIKI KAISHA, dated 2024)
Where a chain is given by its changes, count along the chain named. In names and notes the source's numbering stands.

T1: hFcyRIIaH on hFcyRIIaH-expressing Jurkat cells (human, UniProt P12318 34-317)
T1 sequence (looked up): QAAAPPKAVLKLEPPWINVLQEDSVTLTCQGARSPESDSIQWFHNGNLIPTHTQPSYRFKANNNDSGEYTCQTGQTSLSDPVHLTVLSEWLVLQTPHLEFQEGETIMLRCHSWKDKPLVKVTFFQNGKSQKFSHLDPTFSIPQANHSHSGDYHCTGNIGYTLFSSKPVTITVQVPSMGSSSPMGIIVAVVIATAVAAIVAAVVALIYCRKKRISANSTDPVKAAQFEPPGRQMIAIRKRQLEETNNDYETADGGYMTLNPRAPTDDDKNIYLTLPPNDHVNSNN

T2: human FcγRIIa H extracellular domain (human, UniProt P12318 34-217)
T2 construct: extracellular domain; Made by the method of WO2014104165; also called hFcγR IIa H; FcyRIIaH
T2 sequence (looked up): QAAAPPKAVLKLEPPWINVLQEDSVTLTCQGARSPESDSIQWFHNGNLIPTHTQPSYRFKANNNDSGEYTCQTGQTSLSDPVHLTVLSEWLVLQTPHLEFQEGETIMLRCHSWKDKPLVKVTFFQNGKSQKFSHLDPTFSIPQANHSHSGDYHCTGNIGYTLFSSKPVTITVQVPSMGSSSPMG

B1: H240-Kn496/L73-k0//H240-Hl516/L73-k0 (antibody, human IgG1, kappa)
heavy 1: QDQLVQSGAEVKKPGASVKVSCKASGFNIKDTYIQWVRQAPGQGLEWMGRIDPLRKQTKYREKFEGRVTITADTSTNTAYMELSSLRSEDTAVYYCVRSGREFDYWGQGTLVTVSSASTKGPSVFPLAPSSKSTSGGTAALGCLVKDYFPEPVTVSWNSGALTSGVHTFPAVLQSSGLYSLSSVVTVPSSSLGTQTYICNVNHKPSNTKVDKKVEPKSCDKTHTCPPCPAPEFQWGPMVFLFPPKPKDVLMISRTPEVTCVVVDVSDEEPEVKFNWYVDGVEVHNAKTKPREEQYNATYRVVSVLPVLHQDWLNGKEYKCKVSNKALPAPIEKTISKAKGQPREPQVCTLPPSRDELTKNQVSLWCLVKGFYPSDIAVEWESNGQPENNYKTTPPVLDSDGSFFLYSKLTVDKSRWQQGNVFSCSVMHEALHNHYTQKSLSLSP
heavy 2: QDQLVQSGAEVKKPGASVKVSCKASGFNIKDTYIQWVRQAPGQGLEWMGRIDPLRKQTKYREKFEGRVTITADTSTNTAYMELSSLRSEDTAVYYCVRSGREFDYWGQGTLVTVSSASTKGPSVFPLAPSSKSTSGGTAALGCLVKDYFPEPVTVSWNSGALTSGVHTFPAVLQSSGLYSLSSVVTVPSSSLGTQTYICNVNHKPSNTKVDKKVEPKSCDKTHTCPPCPAPELLGGPSVFLFPPKPKDVLMISRTPEVTCVVVDVSHEEPEVKFNWYVDGVEVHNAKTKPREEQYNATYRVVSVLPVLHQDWLNGKEYKCKVSNDALPAPIEETISKAKGQPREPQVYTLPPSRCELTKNQVSLSCAVKGFYPSDIAVEWESNGQPENNYKTTPPVLDSDGSFFLVSKLTVDKSRWQQGNVFSCSVMHEALHNHYTQKSLSLSP
light: DIQMTQSPSSLSASVGDRVTITCRASQDIHKYIAWYQQKPGQAPRLLIQYTSTLQPGVPSRFSGSGSGTDYTFTISSLQPEDIATYYCLQYEQLRTFGGGTKVEIKRTVAAPSVFIFPPSDEQLKSGTASVVCLLNNFYPREAKVQWKVDNALQSGNSQESVTEQDSKDSTYSLSSTLTLSKADYEKHKVYACEVTHQGLSSPVTKSFNRGEC
notes: also called EGL-ART11; ART11
B2: H240-Kn032/L73-k0//H240-Hl032/L73-k0 (antibody, human IgG1, kappa)
heavy 1: QDQLVQSGAEVKKPGASVKVSCKASGFNIKDTYIQWVRQAPGQGLEWMGRIDPLRKQTKYREKFEGRVTITADTSTNTAYMELSSLRSEDTAVYYCVRSGREFDYWGQGTLVTVSSASTKGPSVFPLAPSSKSTSGGTAALGCLVKDYFPEPVTVSWNSGALTSGVHTFPAVLQSSGLYSLSSVVTVPSSSLGTQTYICNVNHKPSNTKVDKKVEPKSCDKTHTCPPCPAPELLGGPDVFLFPPKPKDTLMISRTPEVTCVVVDVSHEDPEVKFNWYVDGVEVHNAKTKPREEQYNSTYRVVSVLTVLHQDWLNGKEYKCKVSNKALPLPEEKTISKAKGQPREPQVCTLPPSRDELTKNQVSLWCLVKGFYPSDIAVEWESNGQPENNYKTTPPVLDSDGSFFLYSKLTVDKSRWQQGNVFSCSVMHEALHNHYTQKSLSLSP
heavy 2: B2 heavy 1 with C348Y, D355C, W365S, L367A, Y406V
light: B1 light
notes: also called EGL-SDALIE; SDALIE
B3: H240-G1d/L73-k0 (antibody, human IgG1, kappa)
heavy: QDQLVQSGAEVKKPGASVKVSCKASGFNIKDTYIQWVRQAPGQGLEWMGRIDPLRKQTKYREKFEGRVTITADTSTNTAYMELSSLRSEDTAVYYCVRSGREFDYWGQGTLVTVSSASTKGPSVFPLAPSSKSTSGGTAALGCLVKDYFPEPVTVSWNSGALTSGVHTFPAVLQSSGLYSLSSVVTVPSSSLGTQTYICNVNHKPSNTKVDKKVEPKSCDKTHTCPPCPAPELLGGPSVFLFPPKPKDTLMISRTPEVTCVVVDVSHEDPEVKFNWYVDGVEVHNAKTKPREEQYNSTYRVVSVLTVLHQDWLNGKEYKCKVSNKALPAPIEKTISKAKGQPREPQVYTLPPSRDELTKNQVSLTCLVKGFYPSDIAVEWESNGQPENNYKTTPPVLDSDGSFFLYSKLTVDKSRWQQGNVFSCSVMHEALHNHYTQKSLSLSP
light: B1 light
notes: Anti-human Epiregulin antibody with the human IgG1 constant region G1d (C-terminal Gly and Lys removed); the text gives 279; also called EGL-G1d
B4: H240-Kn120/L73-k0//H240-Hl068/L73-k0 (antibody, human IgG1, kappa)
heavy 1: B1 heavy 1 with F233Y, Q234Y, V249T, E269D, P306T, A326D
heavy 2: B1 heavy 2 with V249T, A297S, P306T, A329K
light: B1 light
notes: also called EGL-ART2; ART2
B5: H240-Kn456/L73-k0//H240-Hl446/L73-k0 (antibody, human IgG1, kappa)
heavy 1: B1 heavy 1 with A329M, I331E
heavy 2: B1 heavy 2 with G235A, A329M, I331E
light: B1 light
notes: also called EGL-ART4; ART4
B6: H240-Kn125/L73-k0//H240-Hl076/L73-k0 (antibody, human IgG1, kappa)
heavy 1: B1 heavy 1 with F233Y, V249T, P306T
heavy 2: B1 heavy 2 with V249T, A297S, P306T, A329M
light: B1 light
notes: Heterodimerized anti-human Epiregulin antibody, asymmetric Fc variant; also called EGL-ART1; ART1
B7: H240-Kn498/L73-k0//H240-Hl518/L73-k0 (antibody, human IgG1, kappa)
heavy 1: B1 heavy 1 with A329M
heavy 2: B1 heavy 2 with A329M
light: B1 light
notes: also called EGL-ART12; ART12
B8: H240-Kn494/L73-k0//H240-Hl514/L73-k0 (antibody, human IgG1, kappa)
heavy 1: B1 heavy 1 with I331E
heavy 2: B1 heavy 2 with I331E
light: B1 light
notes: '1332E' read as I332E; also called EGL-ART10; ART10
B9: H240-Kn461/L73-k0//H240-Hl443/L73-k0 (antibody, human IgG1, kappa)
heavy 1: B1 heavy 1 with K325D, I331E
heavy 2: B1 heavy 2 with G235A, I331E
light: B1 light
notes: also called EGL-ART8; ART8
B10: H240-GASDALIE/L73-k0 (antibody, human IgG1, kappa)
heavy: B2 heavy 1 with G235A, C348Y, W365T
light: B1 light
B11: H240-Kn462/L73-k0//H240-Hl441/L73-k0 (antibody, human IgG1, kappa)
heavy 1: B1 heavy 1 with K325D
heavy 2: B1 heavy 2 with G235A
light: B1 light
notes: also called EGL-ART5; ART5
B12: H240-Kn462/L73-k0//H240-Hl445/L73-k0 (antibody, human IgG1, kappa)
heavy 1: B1 heavy 1 with K325D
heavy 2: B1 heavy 2 with G235A, A329K, I331D
light: B1 light
notes: also called EGL-ART6; ART6
B13: H240-Kn443/L73-k0//H240-Hl408/L73-k0 (antibody, human IgG1, kappa)
heavy 1: B1 heavy 1 with V249T, P306T, K325D
heavy 2: B1 heavy 2 with G235A, V249T, P306T
light: B1 light
notes: also called EGL-ART3; ART3

Tests used:
[1] = biological target: hFcyRIIIaV on hFcyRIIIaV-expressing Jurkat cells (human, UniProt P08637 17-254); experiment: cell-based or functional assay
Sequence of hFcyRIIIaV on hFcyRIIIaV-expressing Jurkat cells (P08637 17-254): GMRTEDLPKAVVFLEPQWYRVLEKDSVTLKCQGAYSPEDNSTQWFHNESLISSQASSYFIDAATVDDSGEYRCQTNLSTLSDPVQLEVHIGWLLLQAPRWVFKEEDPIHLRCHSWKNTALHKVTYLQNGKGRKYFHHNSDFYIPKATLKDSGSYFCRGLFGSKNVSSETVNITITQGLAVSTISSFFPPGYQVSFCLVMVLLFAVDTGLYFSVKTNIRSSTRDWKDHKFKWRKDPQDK

[2] = biological target: T1, hFcyRIIaH on hFcyRIIaH-expressing …; experiment: cell-based or functional assay
[3] = biological target: T2, human FcγRIIa H extracellular domain; experiment: SPR; KD for FcγRIIb divided by KD for this FcγR
[4] = biological target: T3, human FcγRIIIa F extracellular domain (human, UniProt P08637 17-208); experiment: SPR; KD for FcγRIIb divided by KD for this FcγR
T3 construct: extracellular domain; Made by the method of WO2014104165; also called hFcγR IIIa F; FcyRIIIaF
T3 sequence (P08637 17-208): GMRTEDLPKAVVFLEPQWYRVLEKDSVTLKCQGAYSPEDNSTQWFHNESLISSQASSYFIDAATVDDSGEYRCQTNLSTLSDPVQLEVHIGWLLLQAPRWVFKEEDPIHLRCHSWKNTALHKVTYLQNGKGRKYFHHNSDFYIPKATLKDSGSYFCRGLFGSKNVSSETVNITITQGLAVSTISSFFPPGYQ

Row | Binder | EC50 value (µg/mL), ADCC reporter bioassay (fold induction of luminescence), Hepa1-6/hEREG target cells [1] [µg/mL] | EC50 value (µg/mL), ADCP reporter bioassay (fold induction of luminescence), Hepa1-6/hEREG target cells [2] [µg/mL] | A/I ratio (KD for FcγRIIb divided by KD for each FcyR) [3] | A/I ratio (KD for FcγRIIb divided by KD for each FcyR) [4]
1 | B1 | 0.000413 | 0.0367 | 63.3 | 694
2 | B2 | 0.00178 |  | 2.2 | 98.7
3 | B3 | 0.0463 |  | 8.9 | 3.4
4 | B4 | 0.00135 | 0.0218 | 5.8 | 68.4
5 | B5 | 0.000789 | 0.0432 | 65.2 | 9940
6 | B6 | 0.000716 | 0.0353 | 47.4 | 4950
7 | B7 | 0.000304 | 0.085 | 60.3 | 4310
8 | B8 | 0.000107 | 0.0419 | 17.3 | 3160
9 | B9 | 0.00107 | 0.0171 | 47.2 | 2350
10 | B10 | 0.00208 | 0.0324 | 16.5 | 89.3
11 | B11 | 0.00167 | 0.0245 | 240 | 399
12 | B12 | 0.0015 | 0.0192 | 307 | 976
13 | B13 | 0.00153 | 0.0158 | 181 | 396
